Biological target: T1, EPO receptor (expressed on TF-1 cells) (UniProt P19235)
T1 sequence (looked up): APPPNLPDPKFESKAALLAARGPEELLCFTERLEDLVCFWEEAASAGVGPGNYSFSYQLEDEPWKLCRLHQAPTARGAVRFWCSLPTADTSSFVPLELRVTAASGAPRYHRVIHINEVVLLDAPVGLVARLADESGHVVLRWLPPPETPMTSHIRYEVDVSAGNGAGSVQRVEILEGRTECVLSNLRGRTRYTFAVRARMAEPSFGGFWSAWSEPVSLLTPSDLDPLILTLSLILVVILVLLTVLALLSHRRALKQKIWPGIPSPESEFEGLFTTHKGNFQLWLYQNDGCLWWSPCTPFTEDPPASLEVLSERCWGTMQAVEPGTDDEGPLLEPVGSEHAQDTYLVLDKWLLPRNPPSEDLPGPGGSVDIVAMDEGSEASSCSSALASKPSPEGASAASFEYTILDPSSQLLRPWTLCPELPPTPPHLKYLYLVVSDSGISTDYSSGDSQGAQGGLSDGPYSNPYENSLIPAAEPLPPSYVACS
Experiment: cell-based or functional assay

EPO (Aranesp®) (ligand)
ED50, TF-1 cell proliferation (3H-thymidine incorporation); S.D. 0.96, N 10: 2.4 ng/mL
